In patent US7091173 (MYRIAD GENETICS, dated 2006):

Biological target: T1, FKBP-associated protein FAP48 (FAP48), amino acids 118-418, bait fused to the Gal4 DNA binding domain (human, UniProt P04386 1-147 (Saccharomyces cerevisiae entry))
T1 construct: range 1-147; Bait of the yeast two-hybrid screen; The coordinates 118-418 are counted on GenBank U73704
Experiment: yeast two-hybrid; listed as prey of the bait in 'Binding Regions of FAP48 and Its Interacting Partners'; true positive by beta-galactosidase assay
Description: The new construct was selected directly in the yeast strain PNY200 for its ability to drive tryptophane synthesis (genotype of this strain: MATα trp1-901 leu2-3, 112 ura3-52 his3-200 ade2 gal4Δ gal80). In these yeast cells, the bait was produced as a C-terminal fusion protein with the DNA binding domain of the transcription factor Gal4 (amino acids 1 to 147). Prey libraries were transformed into the yeast strain BK100 (genotype of this strain: MATa trp1-901 leu2-3,112 ura3-52 his3-200 gal4Δ gal80 LYS2::GAL-HIS3 GAL2-ADE2 met2::GAL7-lacZ), and selected for the ability to drive leucine synthesis. In these yeast cells, each cDNA was expressed as a fusion protein with the transcription activation domain of the transcription factor Gal4 (amino acids 768 to 881) and a 9 amino acid hemagglutinin epitope tag. PNY200 cells (MATα mating type), expressing the bait, were then mated with BK100 cells (MATa mating type), expressing prey proteins from a prey library. The resulting diploid yeast cells expressing proteins interacting with the bait protein were selected for the ability to synthesize tryptophan, leucine, histidine, and adenine. […]

B1: Dynactin (DCTN1(1278), p150-Glued), amino acids 1063-1205, prey fused to the Gal4 activation domain (other, UniProt P04386 768-881, looked up, not shown: small tags and cut ends)
chain: ANFNQSGNIADSSLSFTFTNSSNGPNLITTQTNSQALSQPIASSNVHDNFMNNEITASKIDDGNNSKPLSPGWTDQTAYNAFGITTGMFNTTTMDDVYNYLFDDEDTPPNPKKEIAGEEQQRGAIPGQAPGSVPGPGLVKDSPLLLQQISAMRLHISQLQHENSILKGAQMKASLASLPPLHVAKLSHEGPGSELPAGALYRKTSQLLETLNQLSTHTHVVDITRTSPAAKSPSAQLMEQVAQLKSLSDTVEKLKDE
notes: range 768-881;range 1063-1205; Prey clone of the yeast two-hybrid screen; Coordinates are counted on the GenBank entry; also called 150 kD dynein-associated polypeptide; DP-150
binding result: binds
